{"source": "patent US20240254220A1", "about": "“COMBINED THERAPY USING ANTI-CD300C ANTIBODY” (CentricsBio, Inc., priority 2021, published 2024)", "molecules": {"B1": {"name": "CL8: anti-CD300c monoclonal antibody, VH3VL1 phage library, VH SEQ ID 331, VL SEQ ID 332 (antibody, V domains shown)", "VH": "EVQLLESGGGLVQPGGSLRLSCAASGFTFSSYAMSWVRQAPGKGLEWVSAISGSGGSTYYADSVKGRFTISRNNSKNTLYLQMNSLRAEDTAVYYCARSGRYADLTSGGQGTLVTVSS", "VL": "QSVLTQPPSASGTPGQRVTISCSGSNSNIGNNYVSWYQQLPDTPPKLLIYDNNKRPSGVPDRFSGSKSGTSASLAISGLRSEDEADYYCSSYTSSSTVMFGGGTKLTVL", "modifications": "CL8 Heavy Chain Variable Region; CL8 Light Chain Variable Region"}}, "target": "T1, CD300c antigen (Homo sapiens, UniProt Q08708)", "T1 construct": "purchased Sino Biological 11832-H08H", "T1 sequence (Q08708 21-183)": "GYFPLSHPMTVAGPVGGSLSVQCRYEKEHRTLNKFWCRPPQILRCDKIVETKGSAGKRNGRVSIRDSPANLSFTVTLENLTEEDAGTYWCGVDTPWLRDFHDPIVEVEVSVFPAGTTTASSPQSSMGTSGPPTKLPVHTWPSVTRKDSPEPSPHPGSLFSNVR", "test": "Binding ELISA of anti-CD300c monoclonal antibodies to CD300c antigen", "conditions": "CD300c antigen coated at 8 μg/mL, absorbance 450 nm", "experimental": "In order to identify the antigen-binding ability of the anti-CD300c monoclonal antibodies produced in Example 1, binding ELISA was performed. Specifically, a CD300c antigen (11832-H08H, Sino Biological) or a CD300a antigen (12449-H08H, Sino Biological) in a coating buffer (0.1 M sodium carbonate, pH 9.0) was dispensed into an ELISA plate at a concentration of 8 μg/mL per well, followed by incubation at room temperature for 3 hours to allow the antigen to be bound to the plate. The unbound antigens were removed by washing three times using phosphate buffered saline-Tween 20 (PBST), and then 300 μL of PBST supplemented with 5% bovine serum albumin (BSA) was added to each well, followed by incubation at room temperature for 1 hour and then washing using PBST. Then, an anti-CD300c monoclonal antibody was diluted in quadruplicate and added thereto, followed by incubation for 1 hour at room temperature for antigen binding. After 1 hour, washing was performed three times using PBST to remove unbound anti-CD300c monoclonal antibody, and then 4 μg/mL of an antibody for detection (HRP conjugated anti-Fc IgG) was added, followed by incubation again at room temperature for 1 hour. […] Then, 2 N sulfuric acid solution was added to terminate the development reaction, and the absorbance was measured at 450 nm to identify the antibodies specifically binding to the CD300c antigen.", "data": [{"molecule": "B1", "values": [{"measurement": "EC50", "result": 49.7, "unit": "µg/mL"}]}]}
